# Test results from patent EP0952217A2.
# Target: SCCA1 recombinant protein expressed on transfected HepG2 and CHO cells (human) (UniProt P29508)
# Assay: virus-to-cell binding assay: transfected cells incubated 20 min with HBV-positive serum and washed, cell-associated HBV-DNA measured by hybrid capture
# UniProt P29508, sequence (P29508 whole entry T357A): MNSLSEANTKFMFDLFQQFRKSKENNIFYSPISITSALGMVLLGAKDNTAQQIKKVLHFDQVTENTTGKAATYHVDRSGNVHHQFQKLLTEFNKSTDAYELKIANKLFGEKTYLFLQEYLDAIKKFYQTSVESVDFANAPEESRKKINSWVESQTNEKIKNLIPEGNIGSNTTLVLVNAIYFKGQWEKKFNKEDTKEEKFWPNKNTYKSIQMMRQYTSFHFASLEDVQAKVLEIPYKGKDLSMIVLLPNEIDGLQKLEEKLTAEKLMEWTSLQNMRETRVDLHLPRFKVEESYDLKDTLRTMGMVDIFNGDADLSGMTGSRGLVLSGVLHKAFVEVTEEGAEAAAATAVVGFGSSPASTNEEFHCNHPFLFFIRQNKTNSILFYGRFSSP
substance,measurement,value
HBV viral particles from HBV-DNA positive serum of patients with acute hepatitis B,"HBV-DNA value, fold over the control cell lines",> 8 .fold
